The values that follow are results of earlier work, collected in publication PMC4454200.

This series addresses Myosin-5a GTD (Mus musculus) (UniProt Q99104).

Chain of Melanophilin GTBDP (Q91V27 176-201): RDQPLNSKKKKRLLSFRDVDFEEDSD
Chain of Myosin-5a GTD (Mus musculus) (Q99104 1469-1853): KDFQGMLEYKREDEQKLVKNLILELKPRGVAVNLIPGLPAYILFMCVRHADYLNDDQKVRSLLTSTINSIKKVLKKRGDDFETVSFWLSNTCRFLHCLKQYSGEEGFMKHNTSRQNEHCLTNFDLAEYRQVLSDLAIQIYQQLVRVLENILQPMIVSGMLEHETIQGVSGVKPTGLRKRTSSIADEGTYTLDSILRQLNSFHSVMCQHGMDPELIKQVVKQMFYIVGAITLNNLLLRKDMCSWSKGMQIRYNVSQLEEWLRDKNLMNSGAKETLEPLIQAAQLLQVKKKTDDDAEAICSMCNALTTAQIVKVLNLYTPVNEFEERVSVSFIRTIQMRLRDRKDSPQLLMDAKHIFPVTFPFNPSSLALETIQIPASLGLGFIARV

One may read the Kd as the equilibrium constant for the complex coming apart. Consider “Melanophilin GTBDP (from UniProt Q91V27)”, for which the equilibrium dissociation constant (Kd) was 500 nM.
